Measured values published in patent US8394929B2, “Nogo receptor-mediated blockade of axonal growth” (Yale University, priority 2000, dated 2013).
“Also recorded” adds a separate entry of the source.

What was measured:
[1] = system: GST-Nogo-induced growth cone collapse; assay: Blockade of Nogo-induced growth cone collapse in chick DRG cultures; type: cell-based; conditions: GST-Nogo / Nogo-66 as collapsing agent
Procedure: For all experiments involving cell culture, the following methods were employed. The culture of embryonic chick E10 and E12 dorsal root ganglion explants and dissociated neurons utilized methods described for E7 dorsal root ganglion cultures (Takahashi et al., (1998) Nature Neurosci. 1, 487-493; Takahashi et al., (1999) Cell 99, 59-69; Goshima et al., (1995) Nature 376, 509-514; Jin & Strittmatter, (1997) J. Neurosci. […]). NGF-differentiated PC12 cells were cultured as described (Strittmatter et al., (1994) J. Neurosci. 14, 2327-2338). Embryonic spinal cord explants (rat E10 or chick E5) were cultured for 7-14 days in the presence of PDGF-AA to induce differentiation of some cells into mature oligodendrocytes (Vartanian et al., (1999) Proc. Natl. Acad. Sci. USA 96, 731-735). The procedure for growth cone collapse assays is identical to that for analysis of Sema3A-induced growth cone collapse (Takahashi et al., (1998) Nature Neurosci. 1, 487-493; Takahashi et al., (1999) Cell 99, 59-69; Goshima et al., (1995) Nature 376, 509-514; Jin & Strittmatter, (1997) J. Neurosci. 17, 6256-6263). The method for analysis of total neurite outgrowth has also been described (Goshima et al., (1995) Nature 376, 509-514; Jin & Strittmatter, (1997) J. Neurosci. 17, 6256-6263; Strittmatter et al., (1994) J. Neurosci. 14, 2327-2338). In outgrowth assays, proteins and peptides were added one hour after plating to minimize any effect on the total number of adherent cells. To test the effect of substrate-bound GST or GST-Nogo, the protein solutions were dried on poly-L-lysine coated glass, washed and then coated with laminin. For E12 cultures, the neuronal identity of cells was verified by staining with anti-neurofilament antibodies (2H3, Develomental Studies Hybridoma Bank) and neurites were traced by observation of rhodamine-phalloidin staining of F-actin in processes.
In the growth cone collapse assay, the response to Nogo was measured in the presence of various potential antagonistic peptides. […] This blockade supports the hypothesis that Nogo is a primary inhibitory component of CNS myelin.
For further testing, a synthetic peptide containing amino acid residues #1055-1094 of hNgR, acetylated at the […] was used [hereinafter “Peptide 140”]. […] Antagonist of Nogo-66 inhibitory activity may act by competing for, and thereby blocking NgR binding sites. To determine the antagonistic activity of Peptide 140, the above synthetic form of the peptide was added to E12 chick DRG explant cultures approximately 10 min before application of various concentrations of GST-NogoA (residues #1055-1120), TPA or Sema3A. 30 min later, cultures were fixed and growth cone collapse was assessed following staining with rhodamine-phalloidin.

[2] = molecular target: chick E12 dorsal root ganglion neurons; assay: AP-Nogo binding to chick dorsal root ganglion neurons
From the text: (a) is a photograph of a gel and an immunoblot where the His-AP-Nogo (66 amino acid) protein was expressed in HEK293T cells, and purified from conditioned medium on a Nickel-containing resin via the His tag. Purified protein was subjected to SDS-PAGE and stained for total protein with CBB or immunoblotted with anti-Nogo antibodies (anti-Nogo). Molecular weight markers of 200, 116, 97, 65 and 45 kDa are shown at left, and the migration of AP-Nogo at right. (b) is a photograph of dissociated chick E12 dorsal root ganglion neurons that were incubated with 10 nM AP-Nogo or 10 nM AP-Nogo+160 nM GST-Nogo for sixty minutes at 23° C. The cells were washed, fixed and incubated at 60° C. in order to inactivate endogenous AP. Bound AP-Nogo was detected by incubation with nitro blue tetrazolium. Note the intense neuronal staining by AP-Nogo that is displaced by unlabeled ligand. (c) is a graph displaying experimental data where the potency of AP-Nogo and GST-Nogo in E12 chick dorsal root ganglion growth cone collapse assays was assessed as described in the Example section. The EC50 of AP-Nogo was determined to be 1 nM or less. The means±s.e.m. calculated from five to eight determinations are illustrated. (d) is a graph displaying experimental data where the binding of 10 nM AP-Nogo to chick E12 dorsal root ganglion neurons was assessed alone, or in the presence of 100 nM GST-Nogo or in the presence of 4 μM Pep2, which was quantified from experiments as in (b) by the method described in the Example section. The means±s.e.m. calculated from eight determinations are shown. (e) is a graph displaying experimental data where AP-Nogo binding to dorsal root ganglion neurons was measured as a function of AP-Nogo concentration. This is one of six experiments with similar results. (f) is a graph summarizing the data from (e) replotted for Scatchard analysis. The apparent Kd for AP-Nogo binding to E12 chick dorsal root ganglion neurons is 3 nM. […]

mouse NgR = molecular target: T1, mouse NgR (Mus musculus, UniProt Q99PI8); assay: AP-fusion protein binding to COS-7 cells expressing mouse NgR
T1 construct: expressed in transfected cells; host or cells: COS-7
T1 sequence (Q99PI8 27-473): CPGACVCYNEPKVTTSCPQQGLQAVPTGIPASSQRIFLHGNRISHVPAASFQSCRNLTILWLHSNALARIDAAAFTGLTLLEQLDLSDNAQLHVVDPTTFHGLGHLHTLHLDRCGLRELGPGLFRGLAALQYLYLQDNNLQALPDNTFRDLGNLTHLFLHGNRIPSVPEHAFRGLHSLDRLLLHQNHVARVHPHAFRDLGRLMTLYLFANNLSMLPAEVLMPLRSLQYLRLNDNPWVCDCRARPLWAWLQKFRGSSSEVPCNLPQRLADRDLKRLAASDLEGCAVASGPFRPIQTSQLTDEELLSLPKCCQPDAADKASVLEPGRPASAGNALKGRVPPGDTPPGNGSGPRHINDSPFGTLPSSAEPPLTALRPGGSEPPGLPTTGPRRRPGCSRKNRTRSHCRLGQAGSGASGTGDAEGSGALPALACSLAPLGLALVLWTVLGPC

Molecule: Pep2-41: 2-41 fragment of the 66 amino acid region of Nogo, acetylated and amidated at the termini (Ac-RIYKGVIQAIQKSDEGHPFRAYLESEVAISEELVQKYSNS-NH2)
- blockade of Nogo-induced growth cone collapse (in words) [1]: abolishes GST-Nogo-induced growth cone collapse
- Ki ([2]; binding of 10 nM AP-Nogo, read-out: apparent Ki in the binding assay): 150 nM

Molecule: Peptide 140: synthetic peptide of amino acids #1055-1094 of the human NogoA protein, acetylated and amidated at the termini (Ac-RIYKGVIQAIQKSDEGHPFRAYLESEVAISEELVQKYSNS-NH2; UniProt Q9NQC3 1055-1094, looked up, fragment)
- blockade of Nogo-induced growth cone collapse (in words) [1]: significantly blocks growth cone collapse

B1: NgR-ecto: secreted fragment of amino acid residues 1-348 of the murine NgR, in HEK293T conditioned medium (protein)
chain: CPGACVCYNEPKVTTSCPQQGLQAVPTGIPASSQRIFLHGNRISHVPAASFQSCRNLTILWLHSNALARIDAAAFTGLTLLEQLDLSDNAQLHVVDPTTFHGLGHLHTLHLDRCGLRELGPGLFRGLAALQYLYLQDNNLQALPDNTFRDLGNLTHLFLHGNRIPSVPEHAFRGLHSLDRLLLHQNHVARVHPHAFRDLGRLMTLYLFANNLSMLPAEVLMPLRSLQYLRLNDNPWVCDCRARPLWAWLQKFRGSSSEVPCNLPQRLADRDLKRLAASDLEGCAVASGPFRPIQTSQLTDEELLSLPKCCQPDAADKASVLE
modifications: left off: small tags and cut ends
notes: secreted fragment of amino acid residues 1-348 of the murine NgR, in HEK293T conditioned medium
- blockade of Nogo-induced growth cone collapse (in words) [1]: prevents Nogo-66-induced growth cone collapse
- blockade of Nogo-induced growth cone collapse (in words) ([1]; listed as NgR ectodomain protein): blocked
- blockade of Nogo-induced growth cone collapse (in words) ([1]; listed as mNgR ectodomain protein): blocked
- reduction of binding of AP-Nogo-66 ([2]; 0.5 nM AP-Nogo-66, NgR-ecto conditioned medium, dorsal root ganglion neurons): 80%
- reduction of binding of AP-Nogo-66 (mouse NgR; 0.5 nM AP-Nogo-66, NgR-ecto conditioned medium, COS-7 cells expressing full length NgR): 80%

B2: GST-Nogo: GST fusion protein of the 66 amino acid lumenal-extracellular fragment of Nogo-A, expressed in E. coli (protein)
chain: RIYKGVIQAIQKSDEGHPFRAYLESEVAISEELVQKYSNSALGHVNCTIKELRRLFLVDDLVDSLK
modifications: also: GST fusion protein
notes: GST fusion protein of the 66 amino acid lumenal-extracellular fragment of Nogo-A, expressed in E. coli
- blockade of AP-Nogo binding (in words) [2]: blocked; also recorded: displaced
- displacement of AP-Nogo (in words) (mouse NgR): displaces AP-Nogo
